The values that follow come from patent publication EP4592321A1 (Biotheus Inc., dated 2025).

The target of assay [1] is T1, HER2 expressed on human gastric cancer cell N87 (human, UniProt P04626 23-1255).
T1 construct: whole, on cells; N87 cells are described as self-expressing HER2; also called human HER2 on N87 cells; HER2 antigen on N87
The assay is described as follows: flow cytometry on N87 cells, MFI, anti-human IgG-Fc PE. For orientation: Flow cytometry measures light scatter and fluorescence of single cells or particles in a stream.

The target in assay [2] is T2, human HER2 antigen (purchased from AcroBiosystems) (human, UniProt P04626 23-652).
T2 construct: Bought soluble antigen used at 100 nM in BLI; also called human HER2 protein; HER2 protein
The assay is described as follows: BLI (ForteBio), antibody on AHQ sensor, 100 nM HER2, 1:1 model.

For assay [3], the target named is T2, human HER2 antigen (purchased from …). Briefly: BLI (ForteBio), antibody before and after 2 and 4 weeks at 40 C on AHQ sensor, 100 nM human HER2.

B1: Anti-HER2(NO3-02) (antibody, human IgG1, kappa, V domains shown)
VH: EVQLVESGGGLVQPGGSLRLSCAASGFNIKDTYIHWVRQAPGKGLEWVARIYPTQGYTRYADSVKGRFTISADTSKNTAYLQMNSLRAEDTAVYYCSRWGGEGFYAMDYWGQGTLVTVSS
VL: DIQMTQSPSSLSASVGDRVTITCRASQNVQGAVAWYQQKPGKAPKLLIYSASFLYSGVPSRFSGSRSGTDFTLTISSLQPEDFATYYCQQHYSTPPTFGQGTKVEIKR
notes: also called optimized Anti-HER2 antibody
As for B1, the binding result in assay [1] and in assay [2] was “binds” in each case.

B2: Anti-HER2(NO3-46) (antibody, human IgG1, kappa, V domains shown)
VH: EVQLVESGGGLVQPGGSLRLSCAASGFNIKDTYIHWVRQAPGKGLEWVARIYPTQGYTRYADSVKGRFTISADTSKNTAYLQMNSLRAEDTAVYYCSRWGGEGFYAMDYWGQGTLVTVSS
VL: DIQMTQSPSSLSASVGDRVTITCRASQSVQGAVAWYQQKPGKAPKLLIYSASFLYSGVPSRFSGSRSGTDFTLTISSLQPEDFATYYCQQHSTTPPTFGQGTKVEIKR
notes: as for B1
Turning to B2, the binding result in assay [3] and in assay [1] was “binds” each time.

B3: Anti-HER2(NO3-36) (antibody, human IgG1, kappa, V domains shown)
VH: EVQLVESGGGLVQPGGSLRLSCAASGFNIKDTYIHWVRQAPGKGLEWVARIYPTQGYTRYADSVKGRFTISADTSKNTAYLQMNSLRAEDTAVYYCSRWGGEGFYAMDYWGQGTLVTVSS
VL: DIQMTQSPSSLSASVGDRVTITCRASNYVQTAVAWYQQKPGKAPKLLIYSASFLYSGVPSRFSGSRSGTDFTLTISSLQPEDFATYYCQQHFMTPPTFGQGTKVEIKR
notes: as for B1
Turning to B3, the binding result in assay [1] and in assay [2] was “binds” throughout.

B4: Anti-HER2(NO3-02)_single arm (antibody, human IgG1, kappa)
heavy: not shown
light: DIQMTQSPSSLSASVGDRVTITCRASQNVQGAVAWYQQKPGKAPKLLIYSASFLYSGVPSRFSGSRSGTDFTLTISSLQPEDFATYYCQQHYSTPPTFGQGTKVEIKRTVAAPSVFIFPPSDEQLKSGTASVVCLLNNFYPREAKVQWKVDNALQSGNSQESVTEQDSKDSTYSLSSTLTLSKADYEKHKVYACEVTHQGLSSPVTKSFNRGEC
chain: not shown
notes: also called Anti-HER2 single-arm antibody
On to B4, for which the binding result in assay [1] and in assay [2] was “binds” in each case.

B5: Anti-HER2(NO3-46)_single arm (antibody, human IgG1, kappa)
heavy: not shown
light: DIQMTQSPSSLSASVGDRVTITCRASQSVQGAVAWYQQKPGKAPKLLIYSASFLYSGVPSRFSGSRSGTDFTLTISSLQPEDFATYYCQQHSTTPPTFGQGTKVEIKRTVAAPSVFIFPPSDEQLKSGTASVVCLLNNFYPREAKVQWKVDNALQSGNSQESVTEQDSKDSTYSLSSTLTLSKADYEKHKVYACEVTHQGLSSPVTKSFNRGEC
chain: not shown
notes: as for B4
For the molecule B5, the binding result in assay [1] and in assay [2] was “binds” throughout.

B6: Anti-HER2(NO3-36)_single arm (antibody, human IgG1, kappa)
heavy: not shown
light: DIQMTQSPSSLSASVGDRVTITCRASNYVQTAVAWYQQKPGKAPKLLIYSASFLYSGVPSRFSGSRSGTDFTLTISSLQPEDFATYYCQQHFMTPPTFGQGTKVEIKRTVAAPSVFIFPPSDEQLKSGTASVVCLLNNFYPREAKVQWKVDNALQSGNSQESVTEQDSKDSTYSLSSTLTLSKADYEKHKVYACEVTHQGLSSPVTKSFNRGEC
chain: not shown
notes: as for B4
For the molecule B6, the binding result in assay [1] and in assay [2] was “binds” in each case.
